Source: patent publication US20240277868

Test system: synthetic TNF-derived myristoylated peptide

## purified recombinant His-tagged wild type SIRT6
  KmPEP: 61.1 µM
